Measurements as given in patent publication US7825091B2, “Modification of feeding behaviour” (Imperial Innovations Limited, priority 2003, dated 2010).

Assays:
[1] = ICV injection, food intake in 24-h fasted rats (studies 1a, 2a); type: in vivo, rat; conditions: ICV 3 nmol, vs saline
Description: (§1) Animals were handled daily after recovery from surgery until completion of the studies.
(§2) Animals had permanent stainless steel guide cannulas (Plastics One, Roanoke, Va.) stereotactically implanted ICV (intracerebraventricularly) or iPVN (into the hypothalamic paraventricular nucleus).

[2] = iPVN injection, food intake in 24-h fasted rats (studies 1b, 2b); type: in vivo, rat; conditions: iPVN 1 nmol, any time point
Description: as §1, §2
Therefore, exendin-4 was injected iPVN at a dose of 0.03 nmol.

B1: glicentin (peptide, UniProt P01275 21-89, looked up)
Glicentin: RSLQDTEEKSRSFSASQADPLSDPDQMNEDKRHSQGTFTSDYSKYLDSRRAQDFVQWLMNTKRNRNNIA
modifications: Glicentin
notes: proglucagon-derived peptide purchased from Peninsula Laboratories
food intake (refeeding) after ICV injection [1]: failed to affect food intake at any time point | food intake after iPVN injection [2]: failed to affect food intake at any time point
